Data: the supplement of paper PMC9170038

System: MS2 coat protein
Test: apparent KD of MS2 coat protein; designed switch direction (-1 OFF switch, 1 ON switch): -1; higher = weaker reporter binding
Method in brief: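 Three titration conditions were used: no input, 200 uM small-molecule ligand, and an oligonucleotide input. In each, SNAP-549-labelled MS2 coat protein was raised from 0.7 or 1.5 nM, doubling, to 3 µM over designed RNA switches transcribed on Illumina chips by stalled E. coli RNA polymerase. Curve fits of normalised cluster fluorescence gave values whose per-design median over clusters is the apparent KD.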

[1] = input ligand: microRNA oligo, concentration not stated
[2] = Eterna round: R95, input ligand: FMN 200 uM
[3] = Eterna round: R95, input ligand: microRNA oligo, concentration not stated
[4] = Eterna round: R95, input ligand: none

| Sequence | apparent KD of MS2 coat protein (input ligand: FMN 200 uM) | apparent KD of MS2 coat protein (input ligand: none) | apparent KD of MS2 coat protein [1] | apparent KD of MS2 coat protein [2] | apparent KD of MS2 coat protein [3] | apparent KD of MS2 coat protein [4] |
| --- | --- | --- | --- | --- | --- | --- |
| CGAUGAGCGGUGAGGAUAUCGUGUUCGAAAGAACGUGAGAAGGCACAUGAGGAUCACCCAUGUGAUCCUCAUCG [Omei Ex4B A34] (Eterna round: R97, puzzle: Brourd's mod of Exclusion 4) | 21.4 nM | 15.2 nM | – | – | – | – |
| AAUCAACAUGAGGAUCACCCAUGUGAGGAUAUAGGCAUGCAUGCAUGCAUGCAUGCAACUAGAAGGCACAAUAC [Design #18] (Eterna round: R97, puzzle: Exclusion 1) | 58.2 nM | 37.4 nM | – | – | – | – |
| GUACUGAAGCUUUGCUUUAGUCGUACAUGAGGAUCACCCAUGUAGGAUAUGGUAGGCUUUGCUUACCAGAAGGACAGAGUGAUC [JL EXNG3 1.25] (Eterna round: R96, puzzle: Exclusion NG 3) | 68.6 nM | 85.3 nM | 83.7 nM | – | – | – |
| CCGGCCGCCGUGAGGAUAUGCCCGCGCGCCCGCGGGCAGAAGGCACAUGAGGAUCACCCAUGUCCCGCGGUCCC [salish99_bmx4_r4_123] (Eterna round: R97, puzzle: Brourd's mod of Exclusion 4) | 35.8 nM | 15.6 nM | – | – | – | – |
| UAUUAGUGAGGAUAUGAGUCGUAGAACAAUAGUACUACGUCUCAGAAGGCACAUGAGGAUCACCCAUGUUCCUU [Mod of Fisker - Jieux - Exclusion 4] (Eterna round: R97, puzzle: Exclusion 4) | 71.3 nM | 16.1 nM | – | – | – | – |
| UUAAAUCAUGUAGGAUAUGCGUGGCGAAGCUAUGCAGAAGGACAUGAGGAUCACCCAUGUUCUUGCGUCUGCGUACAGAUGCGG [Exclusion NG 1] (Eterna round: R96, puzzle: Exclusion NG 1) | 175 nM | 25.9 nM | 20 nM | – | – | – |
| GAUUGACAUGAGGAUCACCCAUGUGAGGAUAUCGGCUGGACCGUGUUGGCUUGGGUUUCGAGAAGGCGCAUAGG [Exclusion 1 V46] (puzzle: Exclusion 1) | – | – | – | 70.5 nM | 88.2 nM | 74.6 nM |
| CGCAAGUUAGGAUAUGACGCGAAUUUCCGGCUUUGGCCGGAUCAGAAGGAACUUGAGGAUCACCCAAGUGGCCG [Adia] (Eterna round: R97, puzzle: Exclusion 4) | 20.1 nM | 15.9 nM | – | – | – | – |
| GGUCUACAUGAGGAUCACCCAUGUAAGGAUAUCGUCACUGGAGCCUCGGCUCCAGUGACGAGAAGGUGCAUAAU [E1/11-A2] (Eterna round: R97, puzzle: Exclusion 1) | 48.9 nM | 36.6 nM | – | – | – | – |
| GUCAGACGAGGAUAUAGAUUUAGAUACAUGAGGAUCACCCAUGUAUAGAUGUAUUUAGAUUUAGAAGGCGUCUGAC [E5/13-A3] (Eterna round: R97, puzzle: Exclusion 5) | 231 nM | 201 nM | – | – | – | – |
| AAUAAUAAGGAGGAUAUCGUAUCGGAGACGAUACGAGAAGGCUUAACAUGAGGAUCACCCAUGUUCCUCAAUAA [Mat - Exclusion 6 - Eli Mod - D89] (puzzle: Exclusion 6) | – | – | – | – | 35.2 nM | – |
| CCGGUUGGCGCAGGAUAUACAUGAGGAUCACCCAUGUUCAUGAGGAUCACUCAUGAGUUUUUGUUGUAGAAGGGUGGCCCGGCC (Eterna round: R96, puzzle: Exclusion NG 2) | 1170 nM | 933 nM | 605 nM | – | – | – |
| AAGACAAUUCUCUAGUGCAACAUGAGGAUCACCCAUGUCAUAGAAGCUUUUUGCUCGUGUUAAGUGACUCAAGAGAG [Eternabot (Original) Solution 41] (Eterna round: R97, puzzle: Sensor, turn-off variant 1) | 69.6 nM | 64.2 nM | – | – | – | – |
| GGUCAUAGGUAAGGAUAUGAAGAUCUGGUGGUGACAUGAGGAUCACCCAUGUGAAAACGAUGAGAUCAGAAGGUACAAUAUGAA [AK ExNG2-4.1] (Eterna round: R96, puzzle: Exclusion NG 2) | 72.7 nM | 86.4 nM | 49.1 nM | – | – | – |
| AAUGCAAGCAAGAUCCUAAACAUGAGGAUCACCCAUGUGCUCGUCUUAUAAAGUACUAUCACGAAAGUGAUAGUACA [Sensor 3, v1 - 64] (puzzle: Sensor v3, turn-off variant 1) | – | – | – | 515 nM | 132 nM | 744 nM |
| UUUGUUUAUGUAGGAUAUGCCUGGCGUGCCUUUGCAGAAGGACAUGAGGAUCACCCAUGUAACAUGAGGCUCACCCAUGUCGCG [salish99_ExNG1_r04_112] (Eterna round: R96, puzzle: Exclusion NG 1) | 285 nM | 277 nM | 152 nM | – | – | – |
| AUGAGGUUAGGAUAUACAUGAGGAUCACCCAUGUUGGAGAAGGAAGUGUAAGUAGCGAGUAGAAGGAACGGAGC [JR_Exclu3_Sub060] (puzzle: Exclusion 3) | – | – | – | 37.5 nM | 51.1 nM | 48.4 nM |
| AGUAGGAGAGGAUAUACAAGAAGUCGAAAGACUUCAACUCAACAUGAGGAUCACCCAUGUAGAAGGCUCCUACA [Omei Ex2 BD A5] (Eterna round: R97, puzzle: Exclusion 2) | 83.3 nM | 17.9 nM | – | – | – | – |
| UUAAUUUUAGGAUAUACAUGAGGAUCACCCAUGUGGCGGGCCAUGAUGGAGCGUACCAGUAGAAGGAAGAACAG [Eternabot (L2) Solution 43] (Eterna round: R97, puzzle: Exclusion 3) | 69.2 nM | 73.2 nM | – | – | – | – |
| ACAUGAGGAUCACCCAUGUGACCACAAUGGCUGAUGUAACAACAGGAUAUGCGUGAAUAUCUAACGCAGAAGGGUUAUGACUGG [Deportation 60 - Jieux - Exclusion NG 3] (Eterna round: R96, puzzle: Exclusion NG 3) | 73.5 nM | 65.4 nM | 71.6 nM | – | – | – |
| CCGUGAGGUAAUAAUCAGUACAUGAGGAUCACCCAUGUCAAGAAGUUGCUCGUCGGUCGGAAAUACGGACGACCCAU [Eternabot (Original) Solution 50] (Eterna round: R97, puzzle: Sensor, turn-off variant 1) | 19.1 nM | 17.9 nM | – | – | – | – |
| GCAUGGAAAGUGAGGAUAUACCACUGGAUACAGUGGUAGAAGGCACAUGAGGAUCACCCAUGUCUCUACCAUGC [Fiskers BMX 4 - 41] (puzzle: Brourd's mod of Exclusion 4) | – | – | – | – | 13.4 nM | – |
| GAGGCAUGCCUAGGUCCACACAUGAGGAUCACCCAUGUAAUGACAGGCUUUUUACUCGUUUUAUCGCUAUCGCGUUC [Enaor] (puzzle: Sensor v3, turn-off variant 1) | – | – | – | 13.2 nM | 20.7 nM | 11.8 nM |
| UAAAAGCGAGGAUAUACAUGAGGAUCACCCAUGUGAGGCGAAAAGCCUCGGGCCAUCAGUAGAAGGUGCAAAAC [Arcecela] (puzzle: Exclusion 3) | – | – | – | 79 nM | 68.9 nM | 112 nM |
| AAAUUCUGAGGAUAUCGAUGUUUGUACAUGAGGAUCACCCAUGUCCUUUUUAUUUUUUCCCGAGAAGGCAGUGUAU [JR_E5_Sub099] (puzzle: Exclusion 5) | – | – | – | – | 36.6 nM | – |
| AAAUAGAAUGAGGAUAUCGAAUUAUAUAUAGUACGAGAAGGCAUUACAUGAGGAUCACCCAUGUUUUGUUGGGA [JR_Ex6_Sub001] (Eterna round: R97, puzzle: Exclusion 6) | 73 nM | 27.6 nM | – | – | – | – |
| ACACAAAGCUAGGAUAUCGAGGCAUCUUCGGCCCGAGAAGGAGCCACAUGAGGAUCACCCAUGUGGUGAUCCUG [eternacac ex6r4 sub4] (Eterna round: R97, puzzle: Exclusion 6) | 100 nM | 121 nM | – | – | – | – |
| UCCUCACAUGAGGAUCACCCAUGUGAGGAUAUCAUGCUUCGUAGUAAACUACGAAGUGUGAGAAGGCGCAUGGC [Omei Ex1 D16] (Eterna round: R97, puzzle: Exclusion 1) | 20.4 nM | 16.2 nM | – | – | – | – |
| UGAUCUAGCGGAGGAUAUACAUGAGGAUCACCCAUGUAGUUGUCUGUACCGUAGUGCAGACUUGUGUAGAAGGCCGCUAGAUCU [JL ENG2 3.62] (Eterna round: R96, puzzle: Exclusion NG 2) | 25.9 nM | 14.3 nM | 9.62 nM | – | – | – |
| AAAGUGUGAGGAUAUUAGUUGUACGUCAAUAGACGUAUAAGUGAGAAGGCACAUGAGGAUCACCCAUGUUCCUG [Omei Ex4 Mod of Mat's R95 mod of Omei v5] (Eterna round: R97, puzzle: Exclusion 4) | 99.7 nM | 21.9 nM | – | – | – | – |
